According to the RNAGym collection of RNA variant scans (doi:10.1021/acssynbio.7b00057):

B1: Pistol ribozyme (parent)
chain: GGGUCGUUGUUCCAUAAUCGCGUGGAUAUGGCACGCAAGUUUCUACCGGGCACCGUAAAUGUCCGACUGGAGCCGUUCGGGCGGCUAUAAACAGACCUCAGGCCCGAAGCGUGGCGGCACCUGCCGCCGGUGGUAAAAAAGAUCGGAAGAGCACACGUCU

Variants of: B1
Experiment: aptazyme ON/OFF ratio, guanine; higher = stronger switching; co-transcriptional cleavage with and without guanine

Aptazyme ON/OFF ratio, 1.09:
U7C G9U U10G U11A C13A
U7C U8A G9A U10A U11C C12U
U7C U8A G9A U10A C13G
U7C G9U U10G U11C
U7C G9U U10G U11G C13A

Aptazyme ON/OFF ratio, 1.3:
U7C G9U U11G C12U C13U
U7C U8A G9A C12U
U7C U8A C12A
U7C U8A C12G C13U

Aptazyme ON/OFF ratio, 1.02:
U7C U8A G9A U10C U11C
U7C G9U U11C C13G
U7C U8A G9A U10A U11C

Aptazyme ON/OFF ratio, 1.18:
U7C G9U U11G C12G C13A
U7C U8A G9A C13U
U7C U8A G9A U10C U11A C12G C13U
U7C U8A G9A U10A C12A C13G
U7C U8A G9A C12U C13U
U7C U8A G9A U11A C12U C13G
U7C U8A G9A U10G U11A C12A C13A
U7C U8A G9A U10A U11A C12A C13U
U7C U8A G9A U10A U11A C12A C13G

Aptazyme ON/OFF ratio, 1.1:
U7C G9U U11G C12G C13U
U7C U8A G9A U10A U11A C13U
U7C G9U U11G C12A C13G
U7C G9U U10G U11A C12U C13U
U7C G9U U10G U11A C12U C13G
U7C U8A G9A U10C U11A C12A C13G
U7C G9U U11A C12A C13G
U7C G9U U10G U11G C13G
U7C G9U U10G U11G C13U

Aptazyme ON/OFF ratio, 1.05:
U7C U8A G9A U10G U11A C13G
U7C G9U U11C C12U C13G
U7C G9U U11C C13U
U7C G9U U11C C13A
U7C U8A G9A U10G U11C C13G
U7C U8A G9A U10G U11C C13A
U7C U8A G9A U10A U11C C13U
U7C U8A G9A U10C U11C C13G

Aptazyme ON/OFF ratio, 1.22:
U7C G9U U10G U11G C12A
U7C U8A G9A U11A C12A C13G
U7C U8A G9A U10A U11A
U7C U8A G9A U10A U11G C12U C13U

Aptazyme ON/OFF ratio, 1.08:
U7C U8A G9A U11A C12A C13U
U7C U8A G9A U10C U11A C13G
U7C G9U U11C C12G

Aptazyme ON/OFF ratio, 1.26:
U7C U8A G9A U10G C12U C13A
U7C U8A G9A U10A C12A C13U
U7C U8A G9A U10A C13U
U7C G9U U11C C12A
U7C U8A G9A C12G

Aptazyme ON/OFF ratio, 1.01:
U7C U8A G9A U10G U11A C12U

Aptazyme ON/OFF ratio, 1.24:
U7C U8A G9A U10A C12G C13G
U7C G9U U10G U11A C12G C13G
U7C U8A G9A U10A U11A C12A C13A

Aptazyme ON/OFF ratio, 1.31:
U7C U8A G9A U10A U11G

Aptazyme ON/OFF ratio, 1.14:
U7C U8A G9A U10G U11C C12U C13G
U7C G9U U11G C12A C13U
U7C U8A G9A U10G C12U C13G
U7C U8A G9A U10C U11G C12A C13U
U7C G9U U10G U11G C12G
U7C G9U U11A C12U C13G
U7C U8A G9A U10G C12A C13A
U7C U8A C12G C13A

Aptazyme ON/OFF ratio, 1.06:
U7C G9U U10G U11C C13G
U7C G9U U10G U11A C13U
U7C G9U U10G U11A C13G
U7C U8A G9A C13G
U7C G9U U10G U11C C12G C13A
U7C U8A G9A U11C

Aptazyme ON/OFF ratio, 1.32:
U7C U8A G9A U10C U11G
U7C G9U U11A C12U C13A
U7C U8A G9A C12A
U7C U8A G9A U11A C12U C13A

Aptazyme ON/OFF ratio, 1.25:
U7C U8A G9A U10G U11C C12G C13U
U7C U8A G9A U10G C12A C13U
U7C U8A G9A U11A C12U
U7C G9U U11A C12A C13A

Aptazyme ON/OFF ratio, 1.15:
U7C U8A G9A U10G U11C C12U C13A
U7C U8A G9A C12A C13U
U7C U8A G9A C13A
U7C U8A G9A U11A C12G C13A
U7C U8A G9A U10G C12A C13G
U7C U8A G9A U10A C13A
U7C U8A G9A U10G U11A C12A
U7C U8A G9A U10C U11A C12A C13U

Aptazyme ON/OFF ratio, 1.11:
U7C G9U U11G C12U C13G
U7C G9U U10G U11C C12G C13G
U7C U8A G9A U10G U11G C12A
U7C G9U U10G U11A C12G C13A
U7C G9U U10G U11G

Aptazyme ON/OFF ratio, 1.28:
U7C G9U U10G U11C C13A

Aptazyme ON/OFF ratio, 1.37:
U7C U8A C12G

Aptazyme ON/OFF ratio, 1.12:
U7C U8A G9A U10A U11A C13G
U7C G9U U11C C12U C13A
U7C G9U U10G U11C C12G C13U
U7C U8A G9A U10C U11A C12G C13A
U7C G9U U10G U11A C12G C13U

Aptazyme ON/OFF ratio, 1.69:
U7C U8A G9A U10A

Aptazyme ON/OFF ratio, 1.21:
U7C U8A G9A U10G U11C C12G C13G
U7C U8A G9A C12A C13A
U7C U8A G9A U10A U11C C12G
U7C U8A G9A U10G U11C C12G
U7C U8A G9A U10A U11G C12U C13A

Aptazyme ON/OFF ratio, 1.19:
U7C G9U U11G C12A C13A
U7C G9U U10G U11A C12U C13A
U7C U8A G9A U10A C12A C13A
U7C U8A G9A U11A C12G C13U
U7C U8A G9A U11A C12G C13G
U7C U8A G9A C12U C13G
U7C U8A G9A C12U C13A

Aptazyme ON/OFF ratio, 1.07:
U7C G9U U10G U11C C13U
U7C U8A G9A U10G U11C C12U
U7C U8A G9A U10C U11C C12G C13U

Aptazyme ON/OFF ratio, 1.29:
U7C U8A G9A U10G U11G C12G
U7C G9U U11A C12A C13U

Aptazyme ON/OFF ratio, 0.977:
U7C U8A G9A U10G C12U C13U

Aptazyme ON/OFF ratio, 1.27:
U7C U8A G9A U10A C12G C13U
U7C U8A G9A U11A C12U C13U

Aptazyme ON/OFF ratio, 1.38:
U7C U8A G9A U10G

Aptazyme ON/OFF ratio, 1.17:
U7C G9U U11G C12G C13G
U7C G9U U11G C12U C13A
U7C U8A G9A U10G U11C C12U C13U
U7C U8A G9A U11A C12A C13A
U7C U8A G9A U10A U11A C12U C13G
U7C U8A G9A U10C U11A C12G C13G
U7C G9U U10G U11C C12A C13G
U7C G9U U10G U11C C12A C13U
U7C G9U U10G U11C C12A C13A
U7C U8A G9A U11A
U7C U8A G9A U10C U11C C12G C13G
U7C U8A G9A U10G U11A C12A C13G
U7C U8A G9A U10G U11A C12A C13U
U7C U8A G9A U10A U11G C12U C13G

Aptazyme ON/OFF ratio, 1.03:
U7C U8A G9A U10G U11A C13U
U7C U8A G9A U10A U11C C13G
U7C U8A G9A U10A U11C C13A
U7C U8A G9A U10C U11C C13A

Aptazyme ON/OFF ratio, 1:
U7C U8A G9A U10G U11C C13U

Aptazyme ON/OFF ratio, 1.2:
U7C U8A G9A U10C U11G C12A C13A
U7C U8A G9A C12A C13G
U7C G9U U11A C12U C13U
U7C U8A G9A U10A U11A C12U C13A
U7C U8A G9A U10C U11A C13A
U7C U8A G9A U10G U11C C12A
U7C U8A G9A U11A C12G
U7C U8A G9A U11A C12A

Aptazyme ON/OFF ratio, 1.13:
U7C U8A G9A U10G U11C C12G C13A
U7C G9U U11C C12U C13U
U7C U8A G9A U10A U11A C12U C13U
U7C U8A G9A U10C U11C C12G C13A
U7C U8A G9A U10C U11A C12A C13A

Aptazyme ON/OFF ratio, 1.04:
U7C U8A G9A U11A C13G
U7C U8A G9A U10G U11A C13A

Aptazyme ON/OFF ratio, 1.16:
U7C U8A G9A U10A U11A C13A
U7C U8A G9A U10C U11G C12A C13G
U7C G9U U10G U11G C12U
U7C U8A G9A U10A U11C C12A
U7C U8A G9A U10C U11A C13U
U7C U8A G9A U10G U11A C12G
U7C G9U U11C C12U

Aptazyme ON/OFF ratio, 3.41:
U7C U8A G9A U10C

Aptazyme ON/OFF ratio, 1.23:
U7C U8A G9A U10A C12G C13A
U7C U8A G9A U10C U11A
U7C U8A C12G C13G

Aptazyme ON/OFF ratio, 1.68:
U7C U8A C12U

Aptazyme ON/OFF ratio, 1.39:
U7C U8A G9A U10G U11G C12U

Aptazyme ON/OFF ratio, 0.994:
U7C U8A G9A U10C U11C C13U
